# Test results from paper PMC11362597, “Neutrophil-specific interactome of ARHGAP25 reveals novel partners and regulatory insights” (Scientific Reports, 2024).
# B1: RHOG (natural protein)
# chain: not shown
# notes: RHOG, small GTPase of the Rac subfamily, endogenous in human neutrophilic granulocytes; In some pull-downs the lysate was loaded with GTPγS or GDPβS beforehand; source: endogenous, human neutrophilic granulocyte lysate
# B2: ARF4 (natural protein, UniProt P18085 1-180, looked up)
# chain: MGLTISSLFSRLFGKKQMRILMVGLDAAGKTTILYKLKLGEIVTTIPTIGFNVETVEYKNICFTVWDVGGQDRIRPLWKHYFQNTQGLIFVVDSNDRERIQEVADELQKMLLVDELRDAVLLLFANKQDLPNAMAISEMTDKLGLQSLRNRTWYVQATCATQGTGLYEGLDWLSNELSKR
# notes: ARF4, small GTPase, endogenous in human neutrophilic granulocytes; In some pull-downs the lysate was loaded with GTPγS or GDPβS beforehand; source: endogenous, human neutrophilic granulocyte lysate
# B3: RAB27A (natural protein, UniProt P51159 1-221, looked up)
# chain: MSDGDYDYLIKFLALGDSGVGKTSVLYQYTDGKFNSKFITTVGIDFREKRVVYRASGPDGATGRGQRIHLQLWDTAGQERFRSLTTAFFRDAMGFLLLFDLTNEQSFLNVRNWISQLQMHAYCENPDIVLCGNKSDLEDQRVVKEEEAIALAEKYGIPYFETSAANGTNISQAIEMLLDLIMKRMERCVDKSWIPEGVVRSNGHASTDQLSEEKEKGACGC
# notes: RAB27A, small GTPase, endogenous in human neutrophilic granulocytes; In some pull-downs the lysate was loaded with GTPγS or GDPβS beforehand; source: endogenous, human neutrophilic granulocyte lysate
# Target: T1, GST-fused recombinant ARHGAP25 (human, UniProt P42331 1-645)
# T1 construct: also called GST-ARHGAP25; GST-tagged recombinant ARHGAP25
# T1 sequence (looked up): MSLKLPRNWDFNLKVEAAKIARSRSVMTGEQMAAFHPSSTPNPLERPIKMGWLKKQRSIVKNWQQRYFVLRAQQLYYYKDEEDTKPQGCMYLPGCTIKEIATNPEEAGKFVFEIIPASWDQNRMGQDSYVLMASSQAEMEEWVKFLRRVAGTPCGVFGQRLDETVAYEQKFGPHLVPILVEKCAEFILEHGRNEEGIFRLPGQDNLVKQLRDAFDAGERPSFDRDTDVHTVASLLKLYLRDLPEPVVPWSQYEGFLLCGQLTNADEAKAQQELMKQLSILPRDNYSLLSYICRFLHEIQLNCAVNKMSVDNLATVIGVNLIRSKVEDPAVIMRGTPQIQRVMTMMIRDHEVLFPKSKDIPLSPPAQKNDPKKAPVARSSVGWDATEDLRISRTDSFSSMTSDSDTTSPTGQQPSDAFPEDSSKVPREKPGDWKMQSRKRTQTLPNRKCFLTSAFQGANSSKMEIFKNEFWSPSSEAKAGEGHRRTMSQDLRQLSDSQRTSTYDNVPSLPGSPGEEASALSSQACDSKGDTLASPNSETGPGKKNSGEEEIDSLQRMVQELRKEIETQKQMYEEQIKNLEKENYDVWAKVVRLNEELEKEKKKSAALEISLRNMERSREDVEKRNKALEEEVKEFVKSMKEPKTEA
# Experiment: affinity purification with mass spectrometry; GST-ARHGAP25 on glutathione agarose beads incubated with neutrophil lysate loaded beforehand with GTPγS or GDPβS (15 mM EDTA, 15 min, RT; stopped with 60 mM MgCl2), 45 min, 4 °C; LFQ values of the two loadings compared
# Details: one partner purified
row,Binder,"log2ΔFC of LFQ values, GTPγS-loaded against GDPβS-loaded lysate"
1,B1,0.589
2,B2,< 0.2
3,B3,< 0.2
